Measurements published in the Immune Epitope Database (IEDB).

Columns and labels:
HLA-A*01:01 [1] = assay: IEDB peptide-MHC binding, purified MHC/direct/fluorescence; filed as Kd, often an IC50 or EC50 that approximates it; ≥ and ≤ were set here for values at or beyond the usual limits of such assays
HLA-A*26:03 = assay: as above
HLA-B*48:01 = assay: as above
HLA-A*69:01 = assay: as above
HLA-B*15:01 = assay: as above
HLA-A*03:01 = assay: as above
HLA-B*27:05 [2] = assay: as above
HLA-A*68:02 = assay: as above
HLA-B*46:01 = assay: as above
HLA-A*31:01 = assay: as above
HLA-B*58:01 = assay: as above
HLA-B*08:03 = assay: as above
HLA-B*57:01 = assay: as above
HLA-A*02:01 = assay: as above
HLA-B*40:01 = assay: as above
HLA-B*15:17 [3] = assay: as above
HLA-B*18:01 = assay: as above
HLA-A*11:01 [4] = assay: as above
HLA-B*08:01 [5] = assay: IEDB peptide-MHC binding, purified MHC/competitive/fluorescence; filed as Kd, often an IC50 or EC50 that approximates it; ≥ and ≤ were set here for values at or beyond the usual limits of such assays; settings: source organism: Giardia lamblia ATCC 50803
HLA-B*07:02 [6] = assay: as above; settings: source organism: Giardia lamblia ATCC 50803
HLA-B*27:05 [7] = assay: IEDB peptide-MHC binding, purified MHC/competitive/fluorescence; ≥ and ≤ were set here for values at or beyond the usual limits of such assays
HLA-B*08:01 [8] = assay: IEDB peptide-MHC binding, purified MHC/direct/fluorescence; filed as Kd, often an IC50 or EC50 that approximates it; ≥ and ≤ were set here for values at or beyond the usual limits of such assays; settings: source organism: Giardia lamblia ATCC 50803
HLA-B*07:02 [9] = assay: as above
HLA-B*08:02 = assay: as above
HLA-A*26:01 = assay: as above
HLA-B*15:17 [10] = assay: IEDB peptide-MHC binding, purified MHC/competitive/fluorescence; filed as Kd, often an IC50 or EC50 that approximates it; ≥ and ≤ were set here for values at or beyond the usual limits of such assays; settings: source organism: Giardia lamblia ATCC 50803
HLA-A*02:03 = assay: as above; settings: source organism: Giardia lamblia ATCC 50803
HLA-B*39:01 [11] = assay: IEDB peptide-MHC binding, purified MHC/direct/fluorescence; filed as Kd, often an IC50 or EC50 that approximates it; ≥ and ≤ were set here for values at or beyond the usual limits of such assays; settings: source organism: Bacillus anthracis str. A0389
HLA-B*15:02 = assay: as above
HLA-B*35:01 [12] = assay: as above; settings: source organism: Bacillus anthracis str. A0389
HLA-A*30:01 = assay: IEDB peptide-MHC binding, purified MHC/competitive/fluorescence; filed as Kd, often an IC50 or EC50 that approximates it; ≥ and ≤ were set here for values at or beyond the usual limits of such assays; settings: source organism: Bacillus anthracis str. A0389
HLA-A*11:01 [13] = assay: as above; settings: source organism: Bacillus anthracis str. A0389
HLA-A*26:02 = assay: IEDB peptide-MHC binding, purified MHC/direct/fluorescence; filed as Kd, often an IC50 or EC50 that approximates it; ≥ and ≤ were set here for values at or beyond the usual limits of such assays; settings: source organism: Variola virus
HLA-B*35:01 [14] = assay: IEDB peptide-MHC binding, purified MHC/competitive/fluorescence; filed as Kd, often an IC50 or EC50 that approximates it; ≥ and ≤ were set here for values at or beyond the usual limits of such assays; settings: source organism: Horsepox virus
HLA-A*01:01 [15] = assay: IEDB peptide-MHC binding, purified MHC/competitive/fluorescence; ≥ and ≤ were set here for values at or beyond the usual limits of such assays
HLA-B*51:01 = assay: IEDB peptide-MHC binding, purified MHC/direct/fluorescence; filed as Kd, often an IC50 or EC50 that approximates it; ≥ and ≤ were set here for values at or beyond the usual limits of such assays; settings: source organism: Mycobacterium tuberculosis
HLA-B*39:01 [16] = assay: IEDB peptide-MHC binding, purified MHC/competitive/fluorescence; filed as Kd, often an IC50 or EC50 that approximates it; ≥ and ≤ were set here for values at or beyond the usual limits of such assays
HLA-B*15:09 = assay: as above
HLA-B*44:02 = assay: IEDB peptide-MHC binding, purified MHC/direct/fluorescence; filed as Kd, often an IC50 or EC50 that approximates it; ≥ and ≤ were set here for values at or beyond the usual limits of such assays; settings: source organism: Camelpox virus M-96
[17] = source organism: Giardia lamblia ATCC 50803
[18] = source organism: Bacillus anthracis
[19] = source organism: Bacillus anthracis str. A0389
[20] = source organism: Camelpox virus M-96
[21] = source organism: Vaccinia virus Copenhagen
[22] = source organism: Mycobacterium tuberculosis
[23] = source organism: Mycobacterium tuberculosis F11
[24] = source organism: Corynebacterium efficiens YS-314
[25] = source organism: Mycobacterium tuberculosis str. Haarlem

Sequence: EIRHRSGIQ
- Kd (HLA-A*01:01 [1]; [17]): ≥ 20 µM
- Kd (HLA-A*26:03; [17]): ≥ 20 µM
- Kd (HLA-B*48:01; [17]): ≥ 20 µM
- Kd (HLA-A*69:01; [17]): ≥ 20 µM
- Kd (HLA-B*15:01; [17]): ≥ 20000 nM
- Kd (HLA-A*03:01; [17]): 2000 nM
- Kd (HLA-B*27:05 [2]; [17]): ≥ 20 µM
- Kd (HLA-A*68:02; [17]): ≥ 20 µM
- Kd (HLA-B*46:01; [17]): ≥ 20 µM
- Kd (HLA-A*31:01; [17]): ≥ 20 µM
- Kd (HLA-B*58:01; [17]): ≥ 20 µM
- Kd (HLA-B*08:03; [17]): ≥ 20 µM
- Kd (HLA-B*57:01; [17]): ≥ 20 µM
- Kd (HLA-A*02:01; [17]): ≥ 20 µM
- Kd (HLA-B*40:01; [17]): ≥ 20 µM
- Kd (HLA-B*15:17 [3]; [17]): ≥ 20000 nM
- Kd (HLA-B*18:01; [17]): ≥ 20 µM
- Kd (HLA-A*11:01 [4]; [17]): 6.39 µM
- Kd (HLA-B*08:01 [5]): 9 µM
- Kd (HLA-B*07:02 [6]): 410 nM

Sequence: GRATICGKY
- IC50 (HLA-B*27:05 [7]; source organism: hepatitis C virus genotype 1a): 122 nM

Sequence: IARLVYKAR
- Kd (HLA-A*01:01 [1]; [17]): ≥ 20 µM
- Kd (HLA-B*08:01 [8]): ≥ 20 µM
- Kd (HLA-B*07:02 [9]; [17]): ≥ 20 µM
- Kd (HLA-B*48:01; [17]): ≥ 20 µM
- Kd (HLA-A*69:01; [17]): ≥ 20 µM
- Kd (HLA-B*15:01; [17]): ≥ 20000 nM
- Kd (HLA-A*03:01; [17]): ≥ 20000 nM
- Kd (HLA-B*27:05 [2]; [17]): ≥ 20 µM
- Kd (HLA-A*68:02; [17]): ≥ 20 µM
- Kd (HLA-B*46:01; [17]): ≥ 20 µM
- Kd (HLA-B*08:02; [17]): ≥ 20 µM
- Kd (HLA-A*31:01; [17]): 0.0353 µM
- Kd (HLA-B*58:01; [17]): ≥ 20 µM
- Kd (HLA-B*08:03; [17]): ≥ 20 µM
- Kd (HLA-B*57:01; [17]): ≥ 20 µM
- Kd (HLA-A*02:01; [17]): ≥ 20 µM
- Kd (HLA-A*26:01; [17]): ≥ 20 µM
- Kd (HLA-B*40:01; [17]): ≥ 20 µM
- Kd (HLA-A*11:01 [4]; [17]): ≥ 20 µM
- Kd (HLA-B*15:17 [10]): ≥ 20 µM
- Kd (HLA-A*02:03): ≥ 20 µM

Sequence: KLYVNGKAY
- Kd (HLA-A*01:01 [1]; [18]): ≥ 20 µM
- Kd (HLA-A*26:03; [19]): ≥ 20 µM
- Kd (HLA-B*39:01 [11]): ≥ 20 µM
- Kd (HLA-B*07:02 [9]; [18]): ≥ 20 µM
- Kd (HLA-B*48:01; [18]): ≥ 20 µM
- Kd (HLA-A*69:01; [18]): ≥ 20 µM
- Kd (HLA-B*15:01; [18]): 298 nM
- Kd (HLA-A*03:01; [18]): 32 nM
- Kd (HLA-B*27:05 [2]; [18]): ≥ 20 µM
- Kd (HLA-A*68:02; [18]): ≥ 20 µM
- Kd (HLA-B*46:01; [18]): 6 µM
- Kd (HLA-B*08:02; [19]): ≥ 20 µM
- Kd (HLA-A*31:01; [18]): ≥ 20 µM
- Kd (HLA-B*58:01; [18]): ≥ 20 µM
- Kd (HLA-B*57:01; [18]): 0.507 µM
- Kd (HLA-B*15:02; [19]): 117 nM
- Kd (HLA-A*02:01; [18]): ≥ 20 µM
- Kd (HLA-A*26:01; [19]): ≥ 20 µM
- Kd (HLA-B*15:17 [3]; [18]): 2.4 nM
- Kd (HLA-B*35:01 [12]): 1630 nM
- Kd (HLA-A*30:01): 400 nM
- Kd (HLA-A*11:01 [13]): ≥ 20 µM

Sequence: LLRDKDGVY
- Kd (HLA-A*01:01 [1]; [20]): ≥ 20 µM
- Kd (HLA-B*07:02 [9]; [20]): ≥ 20 µM
- Kd (HLA-B*48:01; [20]): ≥ 20 µM
- Kd (HLA-A*26:02): ≥ 20 µM
- Kd (HLA-A*69:01; [20]): ≥ 20 µM
- Kd (HLA-B*15:01; [20]): 69.3 nM
- Kd (HLA-B*27:05 [2]; [20]): ≥ 20 µM
- Kd (HLA-A*68:02; [20]): ≥ 20 µM
- Kd (HLA-B*46:01; [20]): ≥ 20 µM
- Kd (HLA-A*31:01; [20]): ≥ 20 µM
- Kd (HLA-B*58:01; [20]): ≥ 20 µM
- Kd (HLA-B*08:03; source organism: Variola virus): ≥ 20 µM
- Kd (HLA-B*57:01; [20]): ≥ 20 µM
- Kd (HLA-B*15:02; source organism: Variola virus): 43 nM
- Kd (HLA-A*02:01; [20]): ≥ 20 µM
- Kd (HLA-A*26:01; source organism: Variola virus): ≥ 20 µM
- Kd (HLA-B*15:17 [3]; [20]): 393 nM
- Kd (HLA-A*11:01 [4]; [20]): ≥ 20 µM
- Kd (HLA-B*35:01 [14]): 67.7 nM

Sequence: LTDSLSSQM
- IC50 (HLA-A*01:01 [15]; [21]): 2.54 µM

Sequence: MPRLSRNAA
- Kd (HLA-A*01:01 [1]; [22]): ≥ 20 µM
- Kd (HLA-B*51:01): 655 nM
- Kd (HLA-B*48:01; [22]): ≥ 20 µM
- Kd (HLA-A*69:01; [22]): ≥ 20 µM
- Kd (HLA-B*15:01; [22]): ≥ 20000 nM
- Kd (HLA-A*03:01; [22]): ≥ 20000 nM
- Kd (HLA-B*27:05 [2]; [22]): ≥ 20 µM
- Kd (HLA-B*46:01; [22]): ≥ 20 µM
- Kd (HLA-B*08:02; [23]): ≥ 20 µM
- Kd (HLA-A*31:01; [22]): ≥ 20 µM
- Kd (HLA-B*58:01; [22]): ≥ 20 µM
- Kd (HLA-B*57:01; [22]): ≥ 20 µM
- Kd (HLA-A*02:01; [22]): ≥ 20 µM
- Kd (HLA-A*26:01; [23]): ≥ 20 µM
- Kd (HLA-B*40:01; [22]): ≥ 20 µM
- Kd (HLA-B*15:17 [3]; [22]): ≥ 20000 nM
- Kd (HLA-B*18:01; [22]): 8.28 µM
- Kd (HLA-A*11:01 [4]; [22]): ≥ 20 µM
- Kd (HLA-B*39:01 [16]; [24]): 250 nM
- Kd (HLA-B*15:09; [24]): ≥ 20 µM

Sequence: QSEHSFEEM
- IC50 (HLA-A*01:01 [15]; source organism: Zaire ebolavirus): 39.6 µM

Sequence: RLFPGLAIK
- IC50 (HLA-B*27:05 [7]; source organism: Homo sapiens): 146 nM

Sequence: SMRFESSPH
- Kd (HLA-B*07:02 [9]; [25]): 5.35 µM
- Kd (HLA-B*15:01; [22]): 9.3 nM
- Kd (HLA-B*46:01; [22]): 15.5 µM
- Kd (HLA-B*15:02; [25]): 49 nM

Sequence: WENGFKVVL
- Kd (HLA-A*01:01 [1]; [20]): ≥ 20 µM
- Kd (HLA-B*07:02 [9]; [20]): ≥ 20 µM
- Kd (HLA-B*48:01; [20]): 0.101 µM
- Kd (HLA-A*69:01; [20]): ≥ 20 µM
- Kd (HLA-B*27:05 [2]; [20]): ≥ 20 µM
- Kd (HLA-A*68:02; [20]): ≥ 20 µM
- Kd (HLA-A*31:01; [20]): ≥ 20 µM
- Kd (HLA-B*58:01; [20]): ≥ 20 µM
- Kd (HLA-B*57:01; [20]): ≥ 20 µM
- Kd (HLA-A*02:01; [20]): ≥ 20 µM
- Kd (HLA-B*40:01; [20]): 0.004 µM
- Kd (HLA-B*15:17 [3]; [20]): ≥ 20000 nM
- Kd (HLA-B*18:01; [20]): ≤ 0.001 µM
- Kd (HLA-B*44:02): ≥ 20 µM
- Kd (HLA-A*11:01 [4]; [20]): ≥ 20 µM
- Kd (HLA-B*39:01 [16]; [21]): 493 nM
- Kd (HLA-B*15:09; [21]): 3.09 µM
